Among the data in PMC5870375 are Kd values, retold here.

The target of the assay is oligomeric amyloid-β 1–42 (UniProt P05067). Kind of assay: ELISA; solid phase binding assay: 96-well plate coated with 100 nM oAβ1-42 in PBS overnight at 4 °C, blocked with 4% BSA; purified Fc or sTREM2-Fc proteins in PBST with 0.5% BSA, 30 min at 37 °C; detected with biotinylated anti-Fc antibody, avidin-HRP, TMB, read at 620 nm. (In an ELISA, binding on a coated surface is turned into a signal by an enzyme label.)

Regarding “soluble TREM2-Fc (human TREM2 extracellular domain, amino acids 1–171, fused to the Fc region of human IgG1) (from UniProt Q9NZC2 19-171) (Fc fusion)”, the dissociation constant (Kd) (as a rule, the free concentration of one partner at which half of the binding sites on the other are occupied at equilibrium, for simple one-to-one binding) was 86.5 nM.
